Reference: the nanobody polyreactivity screen of Harvey et al. (2022)

Assay: yeast display, Sf9 membrane polyspecificity reagent, FACS + sequencing; frameworks hold sequencing errors
Outline: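 Galactose induction of a Saccharomyces cerevisiae BJ5465 synthetic nanobody display library ran 36–48 hours. The cells were then stained for 1 hour at 4 °C with 10% biotinylated, detergent-solubilized Sf9 membrane reagent, pulled down on streptavidin microbeads and FACS-sorted into low and high (top ~1%) gates on expression and reagent-binding fluorescence. Labels for polyreactivity follow the gate of origin.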

## QVQLEESGGGLVQAGGSLRLSCGASGFTFRGYAMGWYIQAPGKERELVAAISKRGGSTYYADSVKGRFTISRDNAKNTVYLQMNSLKPEDTAVYYGAAEDTVYWGGVYYWTVYYWGQGTQVNVSS
  polyreactivity (PSR sort gate): high polyreactivity

## QVQLVESGGGLVQEGGSLRLSCAASGGTFRWYTMGWYRQAPGKERELVAAISSTGSTYYADSVKGRFTISRDNAKNTVYLQMNSLKPEDTAVYYCNASYNGKGSWDLDYWGQGTQVTVSS
  polyreactivity (PSR sort gate): high polyreactivity

## KVQLVESGGGLVQAGGSLRLSCAASGLIFPAYTIGWYRQAPGKEREMVAAISRSGGSTYYADSVKGRFTISRDNAKYTVYLEMNSLKPEDTALYYCAAGYPGYDSYYKFYYWGQGTQVTVSS
  polyreactivity (PSR sort gate): high polyreactivity

## QVQHVESGRGLVQAGGSLRLSCSASVRIFYNYAMGWYRQAPGKERELVAAISGSGGSTYYADSVKGRFTISRDNAKNSVYLQMNSQKPEDTAVYYCNKAVRRYPRFDYWGQGTQVTVSS
  polyreactivity (PSR sort gate): low polyreactivity

## QVQLVESGGCLVQAGGRLRLSCAASGIIFYLYAMAWYRQARGKVWELVATISRRGGSTYYADSVKGRFTISRDNAKNTVYLQMNSLKPDDTAVYYCATGHFSVGRSFSSGSYEYWGQGTQVTVSS
  polyreactivity (PSR sort gate): high polyreactivity

## QVQLVESGGGLVQAGGSLRLSCAASGSIFYVNAMGWYRQAPGKERELVAAINWSGGRTYYADSVKGRFTISRDTAKNTVYLQMNSLKPEDTAVYYCAATVRRRYERYNYWGQGTQVTVSS
  polyreactivity (PSR sort gate): high polyreactivity

## QVQLVESGGGLVQAGGSLRLSCASSGNTFVDYAMGWFRQAPGKETELVAAISDGGSTNYADSVKGRFTISRDNAKNTVDLQMNSLKPEDTEVYYCAKDELYIPGVWPYYEYDYWGQGTQVTVSS
  polyreactivity (PSR sort gate): low polyreactivity

## QVQLVESGGGLVQAGGSLRLSCAASGRILWWYAMAWYRQAPGKERELVATITYSGGSTYADSVKGRFTISRDNAKNTVYLQMNSLKPVDTAVYYCAARLALYYGKSVYWGQGTQVTVSS
  polyreactivity (PSR sort gate): high polyreactivity

## QVQLVESGGGLVQAGGSLRISSAASGRTFATYVMGWYRQAPGKERELVASITRGGSTNYADSVKGRFTISRDNAKNTVYLQMNSLKPEDTAVYYCAASFLATYDYWGLGTQVTVSS
  polyreactivity (PSR sort gate): low polyreactivity

## QVQLVESGGGLVQAGGSLRLSCAASGFTYSRYAMGWYRQAPGKERELVAAIRLRDGITYYADSVKGRITISRDNAKNTVYLQMNRLKPEDTAVYYCNAVNRTPVSQLDYWGQGTQVTVSS
  polyreactivity (PSR sort gate): high polyreactivity

## QVQLVESGGGLVQAGGSLRLSCAASGRIFKCYAMGWYRQAPGKERELVAAISSGGRTYYADSVKGRFTISRDNAKNTVYLQMNSLKPEDTAVYYCAALQRTGPYAGSSGYWGQGSQVTVSS
  polyreactivity (PSR sort gate): high polyreactivity

## QVQLVESGVGLVQAGGSLRLSCAASGFLFKYNAMGWYRQAPAKERELVAAISWSGSRTYYADSVKGRFTISRDNAKNTVYLQMNSLKPEDTAVYYCNAVSWRTSRYDYWGQGTQVTVSS
  polyreactivity (PSR sort gate): high polyreactivity

## QVQLVESGGGLVQAGGSLRLSCAASGRTFGSYGMGWYRQAPGKERELVAAISRSVGSTYYADSVKGRFTISRDNAKNSVYLQMNSLKPEDTAVYYCAVLNHRSFRYTSYYYWGQGTLVTVSS
  polyreactivity (PSR sort gate): high polyreactivity

## QVQLVESGGGLVQAGGSLRLSCAASGRTIPTYVMGWYRQAPGKERELVASIRSGGRTKYADSVKGRFTISRDNAKNTVYLQMNSLKPEDTAVYYCAADRRAYYYSFDYWGQGTQVTVSS
  polyreactivity (PSR sort gate): low polyreactivity

## VQLVESGGGLVQAGGSLRLSCAASGFTFRWYAMGWYRQAPGKERELVAAISRGGNTNYADSVKGRFTISRDNANNTVYLQMNSLNPDDTAVYYCAAGHGSLRYNYWGQGSQVTVSS
  polyreactivity (PSR sort gate): high polyreactivity

## QVQLVESGGGLVQAGGSLSLSCAASGRIFVRNSMGWYRQEPGKETELVADITNGGSTNYADSVKGRFTISRDNAKNTVYLQMNSQKPEDTAVYYCAADTLGVYDGDYWGQGTQVTVSS
  polyreactivity (PSR sort gate): low polyreactivity

## QVQLVESGGGLVQAGGSLRLSCAASGSIFGVYAMGWYRQAPGTERELVAAISSRGSSTYYADSVKGRFTISRDNAKKTVYLQMLSLKPEDTAVYYCAARPGIRSYPPGYGYWGQGTQGTVSS
  polyreactivity (PSR sort gate): high polyreactivity

## QVQLVESGGGLVQAGGSLRLSCAASGYTFRSYAMGWYRQAPGKEREFVASISSSGGSTYYADSVKGRFTISRDNAKNTVYLQMNSLKPEDTAVYYCAASVGSYPYDEYDYWGQGTQVTVSS
  polyreactivity (PSR sort gate): low polyreactivity

## QVQLVESWGGLVQAGGSLRLSCAASGIIFQNYDMGWYRQAPGKERELVAAITGSGGSTYYADSVKGRFTISRDNAKNIVYLQMNSLKPEDTAVYYCAASSFVVSGYNKYYEYGYWGQGTQVTVSS
  polyreactivity (PSR sort gate): low polyreactivity

## QDQLVESGGGLVQAGGSLRLSCAASGNIFPSYVMGWYRQAPGKERELVAAITWKGGSTYYADSVKGRFTISRDNAKNTVYLQMNSLKPEDTAVYYCNAVGNLYSRDDYWGQGTQVTVSS
  polyreactivity (PSR sort gate): low polyreactivity

## QVQLVESGGGLVQAGGSLRLNCAASGSTFFGNAMGWYRQAPGKERELVAAISGSGGSTYYADSVKGRFTISRDNAKNTVYLQMNSLKPEDTAVYYCAKYYLTGLARYDYWGQGTQVTVSS
  polyreactivity (PSR sort gate): high polyreactivity

## QVQLVESGGGLVQAGGSLRLSCAASGRTFIYNAMGWYRQAPGKERELVAAISTSGGRTYYADSVKGRFTISRDNAKNTVYLQMNSLKPEDTAVYYCNAVRSYRMDYWGQGTQVTVSS
  polyreactivity (PSR sort gate): high polyreactivity

## QVQLVESGGGLVQAGGSLRLSCASSGSTFSIYAMGWYRQAPGKERELVAGISGSGGSTYYADSVKGRFTISRDNAKNTVYLQMNSLKPEDTAVYYCAKRVLWGLDYWGQGTQVTVSS
  polyreactivity (PSR sort gate): low polyreactivity

## QVHLVQTRGGLVQAGGSLRLSCAASGLTFTYYAMGWNRPEPGKERQLVSAISSSGSDTYYADSVKGRFTISRDYALNTVYFQMNSLKTEDTAVYYCAAVLTALSPDFEYEYWGQGTQVTVSS
  polyreactivity (PSR sort gate): low polyreactivity

## QVHLVESGGRLVQAGVSLRLSCAASGRIFSNYAMGWYIQAPGKERELVAAISRGGGRTFYADSVKGRFTISRDNAKNTVYLQMNSLKPEDTAVYYCATRSYYVKGDYWGQGTQVTVSS
  polyreactivity (PSR sort gate): high polyreactivity

## QVQIVESGGGLVQAGGSLRLSCAASGITFPRYAMGWYRQAPGKESELVATITSRGGSTYYADSVKGRFTISRDNAKNTVYLQMISLKPEDTAVYYFNDRHYIFWSRYDYWGQGTQVTVSS
  polyreactivity (PSR sort gate): high polyreactivity

## QVQLVESGGGLVQAGGSLRLSCAASGFTISDNAMGWYRQAPGKERELVAAITSGTSTYYADSVKGRFTISRDNAKNTVYLQMNSLKPEDTAVYYCAARTYYSGYLWARGYWGQGTQVTVSS
  polyreactivity (PSR sort gate): high polyreactivity

## QVQLVESAGGLVQAGGSHRLSCAASGITFYRYVMARYRQAPGKERELVAAITSGGNTYYADSVKGRFTISRDNAKNTFYLQMNRLKPDDTAVYYCAAYFSGPFDYWGQGTQVTVSS
  polyreactivity (PSR sort gate): high polyreactivity

## QVQLVESVGGLVQEGGSLRLSCDASGSIFLYAMGWYRQAPGKERELVAAINRGGGSTYYADSVKGRFTISRDNAKNTVYLEMNSLKPEVTAVYYCAVVYLLPRYWWRYDYWGQGTQVTVSS
  polyreactivity (PSR sort gate): low polyreactivity

## QVQLVESGGGLVQAGGSLRLSCAASGITFSYNAMGWYRQAPGKERELVAAITWSGDSTYYADSVKGRFTISRDNAKNTVYLQMNSLKPEDTAVYYCNARYLRLRYPYTDEYNYWGQGTQVTVSS
  polyreactivity (PSR sort gate): low polyreactivity

## PVQLVESGGGLVEAGGSLLLSCAASGSTFREYTMGWYRQAPGKERELVAAITNSGGSTYYADSVKGRFTISRDIAKYTVYLQMNSLKPDDTSVYYFAAEVGIVDYDYWGQGTKVTVSS
  polyreactivity (PSR sort gate): low polyreactivity

## QVQLVESGGGLVQAGGSLRLSCAASGSTFGWNAMGWYRQAPGKERELVAAISSRGGSTSYADSVKGRFTISRDNAKNSVYLQMNSLKPEYTAVYYCAAPYVYYRYGYWGLGTQVTVSS
  polyreactivity (PSR sort gate): low polyreactivity
